The source of these data is paper PMC11965310.

In assay [1] the target is VHH H3-2. Kind of assay: SEC; Superdex 75 Increase 10/300 GL, PBS, 16 °C; 20 µM VHH without or with 40 µM tau-Cter peptide. On the technique in general: Size exclusion chromatography separates by hydrodynamic size, large species first.
In assay [2] the target is VHH H3-2. Briefly: crystal structure; 280 μM H3-2 with 1 mM tau-Cter peptide; 23% PEG-MME 2000, 0.1 M potassium acetate; 1.8 Å.

One may read the stoichiometry N as the number of molecules, sites or subunits per partner or assembly.

B1: VHH H3-2 (VHH)
VHH: EVQLQASGGGFVQPGGSLRLSCAASGYTSGDEIMGWFRQAPGKEREFVSAISWQSGTSTYYADSVKGRFTISRDNSKNTVYLQMNSLRAEDTATYYCAPMTLAETYYEWLISGYWGQGTQVTVSS
As to B1, the stoichiometry N in the assay with VHH H3-2 [1] and with VHH H3-2 [2] was 2 each time.
